Molecular target: T1, GST-tagged GFA1 (GST-GFA1) (Arabidopsis, UniProt Q9LNC5 1-987)
T1 construct: GAMETOPHYTIC FACTOR 1 (GFA1), Arabidopsis, full-length cDNA in pGEX-4T-1; also called pGEX-4T-GFA1; source: E. coli BL21 (DE3), purified (glutathione-Sepharose 4B)
T1 sequence (looked up): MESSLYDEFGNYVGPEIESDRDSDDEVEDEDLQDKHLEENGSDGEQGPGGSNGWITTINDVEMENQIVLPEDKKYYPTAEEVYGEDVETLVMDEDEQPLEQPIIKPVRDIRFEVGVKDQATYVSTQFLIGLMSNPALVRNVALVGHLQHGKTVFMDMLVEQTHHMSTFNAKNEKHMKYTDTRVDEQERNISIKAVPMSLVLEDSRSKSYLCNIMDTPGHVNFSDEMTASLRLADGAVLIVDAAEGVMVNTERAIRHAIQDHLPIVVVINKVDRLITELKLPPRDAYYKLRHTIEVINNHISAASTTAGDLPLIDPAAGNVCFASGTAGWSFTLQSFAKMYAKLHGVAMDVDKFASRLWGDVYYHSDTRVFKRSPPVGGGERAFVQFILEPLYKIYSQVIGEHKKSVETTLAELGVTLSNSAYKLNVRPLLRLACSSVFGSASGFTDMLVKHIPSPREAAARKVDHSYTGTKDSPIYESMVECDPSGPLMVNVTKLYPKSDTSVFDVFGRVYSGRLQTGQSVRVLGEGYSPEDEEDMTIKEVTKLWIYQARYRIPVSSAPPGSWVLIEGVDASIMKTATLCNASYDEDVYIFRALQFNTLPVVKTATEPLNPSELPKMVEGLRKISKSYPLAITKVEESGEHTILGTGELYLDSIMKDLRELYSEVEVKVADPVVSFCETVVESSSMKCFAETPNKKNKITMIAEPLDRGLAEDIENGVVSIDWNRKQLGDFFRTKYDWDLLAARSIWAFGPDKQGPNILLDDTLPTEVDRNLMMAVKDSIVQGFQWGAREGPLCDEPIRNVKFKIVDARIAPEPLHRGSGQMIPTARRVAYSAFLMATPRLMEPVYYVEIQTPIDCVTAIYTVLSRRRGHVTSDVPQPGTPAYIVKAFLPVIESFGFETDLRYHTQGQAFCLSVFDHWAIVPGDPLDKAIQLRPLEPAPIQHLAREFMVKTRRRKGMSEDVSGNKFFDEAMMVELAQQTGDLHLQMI
Experiment: pull-down; GST or GST-GFA1 on glutathione-Sepharose 4B beads, His-RID1 added, 4 °C 1–2 h; 50mM Tris-HCl pH 7.5, 100mM NaCl; wash with 150mM NaCl, 25mM imidazole; immunoblot with anti-HIS antibody
Conditions: both partners purified

binding result: binds
B1: hexa-histidine-tagged RID1 (His-RID1) (natural protein, Arabidopsis, UniProt F4IE66 1-717, looked up)
chain: MPSMAQGELKSFVQNSRPNPKSPTVSPFSMRQKIAEHRRSLPIASVEKRLVEEVQKNDILIIVGETGSGKTTQLPQFLYNAGFCREGKMIGITQPRRIAAVTVAKRVAEECEVQLGQKVGYSIRFDDTTSGSTRLKYMTDGLLLREALLDPHLSRYSVIIVDEAHDRSVHTDVLLALLKKIQRTRSQPVSEKTEFGNVASQVQTTTRDANGPQQNGVLKGYQGRKLSPLKLIIMSASLDARVFSEYFGGAKAVHVQGRQFPVDILYTVHPESDYVDATLVTIFQIHFEEKPGDILVFLTGQDEIESVERLVQERLQNIPEDKRKLLPLAIFSALPSEQQMKVFAPAPTGFRKVILATNIAETSITIPGIRYVIDPGFVKARSYDPSKGMESLDVVPASKAQTLQRSGRAGREGPGKSFRLYPEREFEKLEDSTKPEIKRCNLSNIILQLKALGIDDIVGFDFIDKPSRGAIIKALAELHSLGALADDGKLENPVGYQMSRLPLEPVYSKALILANQFNCLEEMLITVAVLSVESIFYDPREKREEARTSKNHFASVEGDHLTYLSVYRESDEFLEKRKAAGSGNNIDKIMKKWCKENYVNSRSLKHARDIYRQIREHVEQIGFNVSSCGNDMLAFRRCLAASFFLKAAQRQLDGTYRALESGEVVHIHPTSVLFRAKPECVIFNELMQTSKKYIKNLTIIDSLWLSELAPHHFQTAE
notes: ROOT INITIATION … 1 (RID1), Arabidopsis, At1g26370, full-length cDNA in pET-28a-c(+); also called pET-28a-RID1; source: E. coli BL21 (DE3), purified (Ni Sepharose 6 Fast Flow)

— article PMC5066494, “Interaction between RNA helicase ROOT INITIATION DEFECTIVE 1 and GAMETOPHYTIC FACTOR 1 is involved in female gametophyte development in Arabidopsis” (Journal of Experimental Botany, 2016)
